In patent US20150376252A1 (VAN ANDEL RESEARCH INSTITUTE, published 2015):
Like-named read-outs stand apart in the source and are kept apart here.

T1: Fz4-YFP-C (full-length human Fz4 with YFP residues 159-239 at the C-terminus) (human, UniProt Q9ULV1 37-537)
T1 construct: whole, on cells; also called YFP-C-tagged Fz4; not shown: YFP-C, residues 159-239 of YFP
T1 sequence (looked up): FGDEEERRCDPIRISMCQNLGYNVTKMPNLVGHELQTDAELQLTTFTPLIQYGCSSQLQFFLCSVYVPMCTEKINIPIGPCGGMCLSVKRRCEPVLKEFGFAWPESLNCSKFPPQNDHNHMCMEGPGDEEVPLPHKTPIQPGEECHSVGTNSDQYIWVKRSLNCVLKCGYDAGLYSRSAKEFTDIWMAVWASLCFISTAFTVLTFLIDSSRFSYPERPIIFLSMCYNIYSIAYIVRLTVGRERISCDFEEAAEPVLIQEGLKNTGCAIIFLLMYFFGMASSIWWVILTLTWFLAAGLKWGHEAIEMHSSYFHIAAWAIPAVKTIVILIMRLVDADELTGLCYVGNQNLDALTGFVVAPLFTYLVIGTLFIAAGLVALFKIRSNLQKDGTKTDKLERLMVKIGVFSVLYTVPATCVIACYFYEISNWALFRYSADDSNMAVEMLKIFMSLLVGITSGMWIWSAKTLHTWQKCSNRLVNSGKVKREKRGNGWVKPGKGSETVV

T2: Fz4-YFP (full-length human Fz4 with yellow fluorescent protein at the C-terminus) (human, UniProt Q9ULV1 37-537)
T2 construct: whole, on cells; also called YFP-tagged Fz4; not shown: YFP
T2 sequence (looked up): T1 sequence (looked up)

T3: Tspan12-YFP (human Tspan12 with YFP at the C-terminus) (human, UniProt O95859 1-305)
T3 construct: whole, on cells; also called YFP-tagged Tspan12; not shown: YFP
T3 sequence (looked up): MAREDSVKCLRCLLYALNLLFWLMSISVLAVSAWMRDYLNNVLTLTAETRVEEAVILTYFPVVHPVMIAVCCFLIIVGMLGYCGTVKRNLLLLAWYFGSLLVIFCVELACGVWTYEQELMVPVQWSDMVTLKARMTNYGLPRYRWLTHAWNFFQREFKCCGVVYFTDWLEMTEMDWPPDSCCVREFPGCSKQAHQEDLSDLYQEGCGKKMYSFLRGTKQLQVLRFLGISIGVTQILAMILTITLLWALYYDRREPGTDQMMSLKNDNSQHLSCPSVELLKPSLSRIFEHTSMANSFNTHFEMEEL

T4: Fz4-Rlu (full-length human Fz4 with Renilla luciferase at the C-terminus) (human, UniProt Q9ULV1 37-537)
T4 construct: whole, on cells; also called Rlu-tagged Fz4; not shown: Renilla luciferase (Rlu)
T4 sequence (looked up): T1 sequence (looked up)

B1: Tspan12-Rlu (human Tspan12 with Renilla luciferase at the C-terminus) (other, UniProt O95859 1-305, looked up)
chain: T3 sequence (looked up)
notes: whole, on cells; also called Rlu-tagged Tspan12; not shown: Renilla luciferase (Rlu)
B2: Fz4-YFP-N (full-length human Fz4 with YFP residues 1-158 at the C-terminus) (receptor, UniProt Q9ULV1 37-537, looked up)
chain: T1 sequence (looked up)
notes: whole, on cells; also called YFP-N-tagged Fz4; not shown: YFP-N, residues 1-158 of YFP
B3: Lrp6 BP3-4 (Lrp6 extracellular beta-propeller domains 3 and 4) (receptor)
chain: VPEAFLLFSRRADIRRISLETNNNNVAIPLTGVKEASALDFDVTDNRIYWTDISLKTISRAFMNGSALEHVVEFGLDYPEGMAVDWLGKNLYWADTGTNRIEVSKLDGQHRQVLVWKDLDSPRALALDPAEGFMYWTEWGGKPKIDRAAMDGSERTTLVPNVGRANGLTIDYAKRRLYWTDLDTNLIESSNMLGLNREVIADDLPHPFGLTQYQDYIYWTDWSRRSIERANKTSGQNRTIIQGHLDYVMDILVFHSSRQSGWNECASSNGHCSHLCLAVPVGGFVCGCPAHYSLNADNRTCSAPTTFLLFSQKSAINRMVIDEQQSPDIILPIHSLRNVRAIDYDPLDKQLYWIDSRQNMIRKAQEDGSQGFTVVVSSVPSQNLEIQPYDLSIDIYSRYIYWTCEATNVINVTRLDGRSVGVVLKGEQDRPRAVVVNPEKGYMYFTNLQERSPKIERAALDGTEREVLFFSGLSKPIALALDSRLGKLFWADSDLRRIESSDLSGANRIVLEDSNILQPVGLTVFENWLYWIDKQQQMIEKIDMTGREGRTKVQARIAQLSDIHAVKELNLQEYRQHPCAQDNGGCSHICLVKGDGTTRCSCPMHLVLLQDELSCG
notes: domain: β-propeller domains 3-4 (BP3-4); not shown: His8 tag (His8 tagged Lrp6 ECD proteins)
B4: Soluble-Rlu (enzyme)
chain: MTSKVYDPEQRKRMITGPQWWARCKQMNVLDSFINYYDSEKHAENAVIFLHGNAASSYLWRHVVPHIEPVARCIIPDLIGMGKSGKSGNGSYRLLDHYKYLTAWFELLNLPKKIIFVGHDWGACLAFHYSYEHQDKIKAIVHAESVVDVIESWDEWPDIEEDIALIKSEEGEKMVLENNFFVETMLPSKIMRKLEPEEFAAYLEPFKEKGEVRRPTLSWPREIPLVKGGKPDVVQIVRNYNAYLRASDDLPKMFIESDPGFFSNAIVEGAKKFPNTEFVKVKGLHFSQEDAPDEMGKYIKSFVERVLKNEQ
B5: His8-tagged Lrp6 BP1-2 (Lrp6 extracellular beta-propeller domains 1 and 2) (receptor, UniProt O75581 20-631, looked up)
chain: APLLLYANRRDLRLVDATNGKENATIVVGGLEDAAAVDFVFSHGLIYWSDVSEEAIKRTEFNKTESVQNVVVSGLLSPDGLACDWLGEKLYWTDSETNRIEVSNLDGSLRKVLFWQELDQPRAIALDPSSGFMYWTDWGEVPKIERAGMDGSSRFIIINSEIYWPNGLTLDYEEQKLYWADAKLNFIHKSNLDGTNRQAVVKGSLPHPFALTLFEDILYWTDWSTHSILACNKYTGEGLREIHSDIFSPMDIHAFSQQRQPNATNPCGIDNGGCSHLCLMSPVKPFYQCACPTGVKLLENGKTCKDGATELLLLARRTDLRRISLDTPDFTDIVLQLEDIRHAIAIDYDPVEGYIYWTDDEVRAIRRSFIDGSGSQFVVTAQIAHPDGIAVDWVARNLYWTDTGTDRIEVTRLNGTMRKILISEDLEEPRAIVLDPMVGYMYWTDWGEIPKIERAALDGSDRVVLVNTSLGWPNGLALDYDEGKIYWGDAKTDKIEVMNTDGTGRRVLVEDKIPHIFGFTLLGDYVYWTDWQRRSIERVHKRSAEREVIIDQLPDLMGLKATNVHRVIGSNPCAEENGGCSHLCLYRPQGLRCACPIGFELISDMKTCIVPE
notes: domain: β-propeller domains 1-2 (BP1-2); for the separate Fc constructs BP1 is 20-325 and BP2 is 325-631; also called H8-Lrp6 BP1-2; not shown: His8 tag (eight histidines)
B6: Fz4-FcH6 (human Frizzled 4 CRD, residues 40-164, fused to Fc and His6 tags) (Fc fusion)
chain: EEERRCDPIRISMCQNLGYNVTKMPNLVGHELQTDAELQLTTFTPLIQYGCSSQLQFFLCSVYVPMCTEKINIPIGPCGGMCLSVKRRCEPVLKEFGFAWPESLNCSKFPPQNDHNHMCMEGPGD
notes: range 40-164; also called Fz4 CRD-FcH6; Fz4-FcH6 dimer; not shown: Fc tag of the pHL-IgL-FcH6 vector; His6 tag (six histidines)
B7: Fz8-FcH6 (Frizzled 8 CRD, residues 28-155, fused to Fc and His6 tags) (Fc fusion)
chain: ASAKELACQEITVPLCKGIGYNYTYMPNQFNHDTQDEAGLEVHQFWPLVEIQCSPDLKFFLCSMYTPICLEDYKKPLPPCRSVCERAKAGCAPLMRQYGFAWPDRMRCDRLPEQGNPDTLCMDYNRTD
notes: range 28-155; also called Fz8 CRD; not shown: Fc tag of the pHL-IgL-FcH6 vector; His6 tag (six histidines)
B8: CCK2R-YFP (receptor, UniProt P32239 1-447, looked up)
chain: MELLKLNRSVQGTGPGPGASLCRPGAPLLNSSSVGNLSCEPPRIRGAGTRELELAIRITLYAVIFLMSVGGNMLIIVVLGLSRRLRTVTNAFLLSLAVSDLLLAVACMPFTLLPNLMGTFIFGTVICKAVSYLMGVSVSVSTLSLVAIALERYSAICRPLQARVWQTRSHAARVIVATWLLSGLLMVPYPVYTVVQPVGPRVLQCVHRWPSARVRQTWSVLLLLLLFFIPGVVMAVAYGLISRELYLGLRFDGDSDSDSQSRVRNQGGLPGAVHQNGRCRPETGAVGEDSDGCYVQLPRSRPALELTALTAPGPGSGSRPTQAKLLAKKRVVRMLLVIVVLFFLCWLPVYSANTWRAFDGPGAHRALSGAPISFIHLLSYASACVNPLVYCFMHRRFRQACLETCARCCPRPPRARPRALPDEDPPTPSIASLSRLSYTTISTLGPG
notes: whole, on cells; Negative control of the saturation BRET; also called CCK2R-YFP, an unrelated seven-transmembrane receptor; not shown: YFP

Experiments:
[1] = target: B2; test: split-YFP BRET assay (FIG. 6D)
[2] = target: T1, Fz4-YFP-C (full-length human Fz4 with …); test: split-YFP BRET assay (FIG. 6D)
[3] = target: T2, Fz4-YFP (full-length human Fz4 with …); test: static BRET in transfected COS-1 cells
[4] = target: T1, Fz4-YFP-C (full-length human Fz4 with …); test: split-YFP complementation: fluorescence microscopy, emission spectrum, anisotropy
[5] = target: biotinylated MBP-Norrin (human); test: AlphaScreen luminescence proximity assay
[6] = target: T5, MBP-Norrin (maltose binding protein fused to the N-terminus of human Norrin residues 25-133, wild-type) (human); test: three-step biolayer interferometry: Lrp6 BP3-4 on MBP-Norrin pre-bound to Fz4-FcH6 sensors
[7] = target: T2, Fz4-YFP (full-length human Fz4 with …); test: static BRET in transfected COS-1 cells; remark: listed apart in the source
[8] = target: T3, Tspan12-YFP (human Tspan12 with YFP at …); test: static BRET in transfected COS-1 cells
[9] = target: T6, MBP-Norrin K54E/R109E (human); test: AlphaScreen competition: unlabeled mutant MBP-Norrin against b-DKK1 peptide on H8-Lrp6 BP1-2
T6 construct: MBP tagged mutant purified like the wild-type; also called K54E/R109E double mutant

[10] = target: T5, MBP-Norrin (maltose binding protein …); test: calculated from the homologous competition assay (FIG. 4B, 4C); Kd derived from the same homologous competition
[11] = target: T5, MBP-Norrin (maltose binding protein …); test: biolayer interferometry; binding avidity of dimer to dimer (FIG. 8A)
[12] = target: biotinylated MBP-Norrin (human); test: AlphaScreen saturation binding curve; binding avidity of dimer to dimer (FIG. 1E)
[13] = target: biotinylated MBP-Norrin (human); test: AlphaScreen luminescence proximity assay; remark: listed apart in the source
[14] = target: T5, MBP-Norrin (maltose binding protein …); test: biolayer interferometry, Fz8-FcH6 on the sensor, MBP-Norrin in solution
[15] = target: T4, Fz4-Rlu (full-length human Fz4 with …); test: saturation BRET in transfected COS-1 cells

Does B1 bind [1]?
Result: binds

Does B1 bind [2]?
Result: binds

Does B1 bind [3]?
Result: binds

Does B2 bind [4]?
Result: binds

Does B3 bind [5]?
Result: no binding

Does B3 bind [6]?
Result: no binding (tested: 40 µg/ml)

Does B4 bind [7]?
Result: no binding

Does B4 bind [8]?
Result: no binding

Which results are given for B5?
binding result [9]: no binding (tested: 1.805 µM); Kd [10]: ~450 nM

Which results are given for B6?
Kd [11]: ~5 nM; Kd [12]: ~11 nM

Does B7 bind [13]?
Result: no binding

Does B7 bind [14]?
Result: no binding

Does B8 bind [15]?
Result: no binding (tested: YFP/Rlu about 33 (ratio))
